{"source": "patent US10450368", "binders": {"B1": {"name": "CH235 (antibody, V domains shown)", "VH": "QVQLVQSGAEVKKPGASVTVSCQASGYTFTNYYVHWVRQAPGQGLQLMGWIDPSWGRTNYAQNFQGRITMTRDTSTSTVYMEMRSLRSEDTAVYYCARNVATEGSLLHYDYWGQGTLVTVSA", "VL": "EIVLTQSPATLSVSPGERATLSCRASQSVRSNLAWYQQRPGQAPRLLIYGTSTRATGVPARFSGRGSGTEFTLAISSMQSEDFAVYLCLQYNNWWTFGQGTKVEIK"}, "B2": {"name": "CH235 Fab (Fab, V domains shown)", "VH": "B1 VH", "VL": "B1 VL"}, "B3": {"name": "CH236 (antibody, V domains shown)", "VH": "QVQLVQSGAAVKRPGASVTISCRASGYTFTTYYIHWVRQAPGQRLELMGMIDPSRGRTDYAQKFQGRVTMSRDTSTSTLYMELRSLRPDDTALYYCVRNVGTEGSLLHYDYWGQGTLVTVSS", "VL": "EIVLTQSPATLSVSPGERVTLSCRASQSVRNNLAWYRQKRGQAPRLLIYGASTRATGIPARFSGSGSGTEFTLTISSMQSEDFAVYYCQQYNNWWTFGQGTKVEIK"}, "B4": {"name": "CH493 (antibody, V domains shown)", "VH": "QVRLLQYGGGVKRPGASMTISCVASGYNFNDYYIHWVRQAPGQGLELMGWIDPSGGRTDYAGAFGDRVSMYRDKSMNTLYMDLRSLRSGDTAMYYCVRNVGTAGSLLHYDHWGLGVMVTVSS", "VL": "B3 VL"}, "B5": {"name": "CH491 (antibody, V domains shown)", "VH": "QVQLVQSGAAVKRPGASVTISCRASGYTFTTYYIHWVRQAPGQGLELMGWINPRGGRTDYSYRFEDRVSMYRDTSMSIVYMDLRNLKSADTAVYYCVRNVGTSGSLLHYDFWGQGSLVTVSS", "VL": "B3 VL"}, "B6": {"name": "CH235.9 Fab (Fab, V domains shown)", "VH": "B4 VH", "VL": "B3 VL"}, "B7": {"name": "CH492 (antibody, V domains shown)", "VH": "QVQLVQSGAAVKKPGASVRVSCKASGYTFTSSHIHWVRQAPGQGPEWMGMVDPRFGRPTYAQKFQGRVAMTRDIYTSTVYMDLRSLKSEDTAIYFCVRNAETEGSLLHIEYWGQGTRVTVSS", "VL": "EIVLTQSPATLSVSPGERATLSCRASQSVRSNIAWYQQKPGQAPRLLIHGASTRATGIPGRFSGSGSGPEFTLAISSVQSEDFAVYYCQQYNDWWTFGQGTKVEIK"}, "B8": {"name": "CH241 (antibody, V domains shown)", "VH": "QVQLVQSGAAVKKPGASVRVSCKASGYTFTSSHIHWVRQAPGQGPEWMGMIDPSVGRPTTAGKFQGRVTMTRDRYTSTAYMDLSSLRSEDTAVYYCARSVETTGSLLYFDYWGQGTLITVSS", "VL": "B7 VL"}, "B9": {"name": "CH235.12 Fab (Fab, V domains shown)", "VH": "QVRLAQYGGGVKRLGATMTLSCVASGYTFNDYYIHWVRQAPGQGFELLGYIDPANGRPDYAGALRERLSFYRDKSMETLYMDLRSLRYDDTAMYYCVRNVGTAGSLLHYDHWGSGSPVIVSS", "VL": "EIVLTQSPATLSASPGERVTLTCRASRSVRNNVAWYQHKGGQSPRLLIYDASTRAAGVPARFSGSASGTEFTLAISNLESEDFTVYFCLQYNNWWTFGQGTRVDIK"}}, "key": {"Centromere B [1]": {"molecular_target": "Centromere B (UniProt P07199)", "sequence (P07199 whole entry)": "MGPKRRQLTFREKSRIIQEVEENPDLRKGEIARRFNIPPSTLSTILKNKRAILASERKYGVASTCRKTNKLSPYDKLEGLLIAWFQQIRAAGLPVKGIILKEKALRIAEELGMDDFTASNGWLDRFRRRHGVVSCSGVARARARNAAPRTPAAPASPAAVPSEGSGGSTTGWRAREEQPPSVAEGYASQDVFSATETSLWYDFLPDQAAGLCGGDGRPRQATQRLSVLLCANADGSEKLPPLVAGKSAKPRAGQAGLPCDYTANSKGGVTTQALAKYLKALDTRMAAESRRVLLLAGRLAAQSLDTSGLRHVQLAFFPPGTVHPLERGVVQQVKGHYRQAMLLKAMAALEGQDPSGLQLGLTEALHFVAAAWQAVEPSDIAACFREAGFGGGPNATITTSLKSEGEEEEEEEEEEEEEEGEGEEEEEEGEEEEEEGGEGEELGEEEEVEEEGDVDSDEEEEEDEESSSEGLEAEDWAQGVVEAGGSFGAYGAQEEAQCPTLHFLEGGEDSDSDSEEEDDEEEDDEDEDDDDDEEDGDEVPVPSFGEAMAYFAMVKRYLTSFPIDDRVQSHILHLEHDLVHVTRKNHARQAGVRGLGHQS", "assay": "AtheNA, Ab 25 ug/ml"}, "Centromere B [2]": {"molecular_target": "Centromere B (UniProt P07199)", "assay": "AtheNA, Ab 6.25 ug/ml"}, "Centromere B [3]": {"molecular_target": "Centromere B (UniProt P07199)", "assay": "AtheNA, Ab 12.5 ug/ml"}, "[4]": {"molecular_target": "BG505 SOSIP.664 gp140 trimer (HIV-1)", "assay": "negative stain EM, 10 molar excess of Fab"}, "[5]": {"molecular_target": "B41 SOSIP.664 gp140 trimer (HIV-1)", "assay": "negative stain EM, 10 molar excess of Fab"}, "AtheNA, Ab 25 ug/ml": {"substrate": "SSB (UniProt P05455)", "sequence (P05455 whole entry)": "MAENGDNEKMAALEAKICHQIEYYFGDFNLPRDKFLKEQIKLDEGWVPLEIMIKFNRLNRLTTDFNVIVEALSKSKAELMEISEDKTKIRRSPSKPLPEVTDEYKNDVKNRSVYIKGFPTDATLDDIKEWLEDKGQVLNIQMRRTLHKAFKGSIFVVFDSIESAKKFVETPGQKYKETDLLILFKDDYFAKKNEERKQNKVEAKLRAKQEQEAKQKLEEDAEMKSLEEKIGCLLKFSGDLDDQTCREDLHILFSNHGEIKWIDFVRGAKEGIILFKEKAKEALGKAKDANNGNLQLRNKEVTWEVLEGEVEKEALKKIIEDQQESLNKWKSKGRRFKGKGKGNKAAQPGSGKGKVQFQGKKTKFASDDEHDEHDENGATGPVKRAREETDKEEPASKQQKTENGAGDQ", "assay": "AtheNA, Ab 25 ug/ml"}, "AtheNA, Ab 12.5 ug/ml": {"substrate": "SSB (UniProt P05455)", "assay": "AtheNA, Ab 12.5 ug/ml"}, "Jo-1 [6]": {"molecular_target": "Jo-1 (UniProt P12081)", "sequence (P12081 whole entry)": "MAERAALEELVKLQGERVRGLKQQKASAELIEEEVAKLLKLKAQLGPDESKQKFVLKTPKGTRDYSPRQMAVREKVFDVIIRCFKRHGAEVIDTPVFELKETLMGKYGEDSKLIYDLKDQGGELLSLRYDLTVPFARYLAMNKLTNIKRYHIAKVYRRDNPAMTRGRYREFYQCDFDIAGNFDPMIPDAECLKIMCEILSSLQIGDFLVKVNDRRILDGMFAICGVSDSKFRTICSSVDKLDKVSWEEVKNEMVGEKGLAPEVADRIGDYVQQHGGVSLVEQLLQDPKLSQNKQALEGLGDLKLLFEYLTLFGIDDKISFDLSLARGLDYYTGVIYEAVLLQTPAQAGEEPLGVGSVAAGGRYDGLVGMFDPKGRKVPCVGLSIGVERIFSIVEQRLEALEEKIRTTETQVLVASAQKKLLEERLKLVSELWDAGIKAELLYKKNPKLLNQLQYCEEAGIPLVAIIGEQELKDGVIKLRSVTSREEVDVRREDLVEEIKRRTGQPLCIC", "assay": "AtheNA, Ab 50 ug/ml"}, "Centromere B [7]": {"molecular_target": "Centromere B (UniProt P07199)", "assay": "AtheNA, Ab 50 ug/ml"}, "Jo-1 [8]": {"molecular_target": "Jo-1 (UniProt P12081)", "assay": "AtheNA, Ab 25 ug/ml"}, "AtheNA, Ab 6.25 ug/ml": {"substrate": "SSB (UniProt P05455)", "assay": "AtheNA, Ab 6.25 ug/ml"}, "Jo-1 [9]": {"molecular_target": "Jo-1 (UniProt P12081)", "assay": "AtheNA, Ab 6.25 ug/ml"}, "AtheNA, Ab 50 ug/ml": {"substrate": "SSB (UniProt P05455)", "assay": "AtheNA, Ab 50 ug/ml"}, "Jo-1 [10]": {"molecular_target": "Jo-1 (UniProt P12081)", "assay": "AtheNA, Ab 12.5 ug/ml"}, "[11]": {"molecular_target": "HIV-1 CH505 transmitted/founder gp120 Env (HIV-1)", "assay": "direct-binding ELISA (OD450), panel 'CH505.TF gp120'"}, "Con S gp120": {"molecular_target": "Con S gp120", "assay": "direct-binding ELISA (OD450), panel 'Con S gp120'"}, "[12]": {"molecular_target": "CH505.TF mutant gp120 M6 (HIV-1)", "assay": "direct-binding ELISA (OD450), panel 'CH505.TF gp120 M6'"}, "[13]": {"molecular_target": "CH505.TF mutant gp120 M8 (HIV-1)", "assay": "direct-binding ELISA (OD450), panel 'CH505.TF gp120 M8'"}}}
{"binder": "B1", "values": [{"measurement": "AtheNA signal (relative luminescence units)", "setting": "Centromere B [1]", "result": 6}, {"measurement": "AtheNA signal (relative luminescence units)", "setting": "Centromere B [2]", "result": 3}, {"measurement": "AtheNA signal (relative luminescence units)", "setting": "Centromere B [3]", "result": 5}]}
{"binder": "B2", "values": [{"measurement": "stoichiometry (Fabs per trimer) (Fabs per trimer)", "setting": "[4]", "result": 1}, {"measurement": "stoichiometry (Fabs per trimer) (Fabs per trimer)", "setting": "[5]", "result": 2}]}
{"binder": "B3", "values": [{"measurement": "AtheNA signal (relative luminescence units)", "setting": "AtheNA, Ab 25 ug/ml", "result": 175}, {"measurement": "AtheNA signal (relative luminescence units)", "setting": "AtheNA, Ab 12.5 ug/ml", "result": 63}, {"measurement": "AtheNA signal (relative luminescence units)", "setting": "Jo-1 [6]", "result": 145}, {"measurement": "AtheNA signal (relative luminescence units)", "setting": "Centromere B [7]", "result": 84}, {"measurement": "AtheNA signal (relative luminescence units)", "setting": "Jo-1 [8]", "result": 72}, {"measurement": "AtheNA signal (relative luminescence units)", "setting": "Centromere B [1]", "result": 129}, {"measurement": "AtheNA signal (relative luminescence units)", "setting": "AtheNA, Ab 6.25 ug/ml", "result": 15}, {"measurement": "AtheNA signal (relative luminescence units)", "setting": "Jo-1 [9]", "result": 7}, {"measurement": "AtheNA signal (relative luminescence units)", "setting": "Centromere B [2]", "result": 208}, {"measurement": "AtheNA signal (relative luminescence units)", "setting": "AtheNA, Ab 50 ug/ml", "result": 207}, {"measurement": "AtheNA signal (relative luminescence units)", "setting": "Jo-1 [10]", "result": 19}, {"measurement": "AtheNA signal (relative luminescence units)", "setting": "Centromere B [3]", "result": 233}]}
{"binder": "B4", "values": [{"measurement": "AtheNA signal", "setting": "Jo-1 [6]", "result": 198}, {"measurement": "AtheNA signal", "setting": "Centromere B [7]", "result": 94}, {"measurement": "AtheNA signal", "setting": "Jo-1 [8]", "result": 167}, {"measurement": "AtheNA signal", "setting": "Centromere B [1]", "result": 129}, {"measurement": "AtheNA signal", "setting": "Jo-1 [9]", "result": 54}, {"measurement": "AtheNA signal", "setting": "Centromere B [2]", "result": 177}, {"measurement": "AtheNA signal", "setting": "Jo-1 [10]", "result": 102}, {"measurement": "AtheNA signal", "setting": "Centromere B [3]", "result": 165}]}
{"binder": "B5", "values": [{"measurement": "AtheNA signal", "setting": "AtheNA, Ab 25 ug/ml", "result": 95}, {"measurement": "AtheNA signal", "setting": "AtheNA, Ab 12.5 ug/ml", "result": 60}, {"measurement": "AtheNA signal", "setting": "Jo-1 [6]", "result": 169}, {"measurement": "AtheNA signal", "setting": "Jo-1 [8]", "result": 118}, {"measurement": "AtheNA signal", "setting": "AtheNA, Ab 6.25 ug/ml", "result": 42}, {"measurement": "AtheNA signal", "setting": "Jo-1 [9]", "result": 56}, {"measurement": "AtheNA signal", "setting": "AtheNA, Ab 50 ug/ml", "result": 144}, {"measurement": "AtheNA signal", "setting": "Jo-1 [10]", "result": 79}]}
{"binder": "B6", "values": [{"measurement": "stoichiometry (Fabs per trimer) (Fabs per trimer)", "setting": "[4]", "result": 3}, {"measurement": "stoichiometry (Fabs per trimer) (Fabs per trimer)", "setting": "[5]", "result": 3}]}
{"binder": "B7", "values": [{"measurement": "EC50 (read off the curve)", "setting": "[11]", "result": 0.5, "unit": "mg/L"}, {"measurement": "EC50 (read off the curve)", "setting": "Con S gp120", "result": 5, "unit": "mg/L"}, {"measurement": "EC50 (read off the curve)", "setting": "[12]", "result": 0.5, "unit": "mg/L"}, {"measurement": "EC50 (read off the curve)", "setting": "[13]", "result": 6, "unit": "mg/L"}]}
{"binder": "B8", "values": [{"measurement": "AtheNA signal (relative luminescence units)", "setting": "Centromere B [1]", "result": 14}, {"measurement": "AtheNA signal (relative luminescence units)", "setting": "Centromere B [2]", "result": 6}, {"measurement": "AtheNA signal (relative luminescence units)", "setting": "Centromere B [3]", "result": 8}]}
{"binder": "B9", "values": [{"measurement": "stoichiometry (Fabs per trimer) (Fabs per trimer)", "setting": "[4]", "result": 3}, {"measurement": "stoichiometry (Fabs per trimer) (Fabs per trimer)", "setting": "[5]", "result": 3}]}
